# Experimental data from patent publication EP3085709A1 (Genor Biopharma Co., Ltd, dated 2016).
# Changes are numbered by the printed parent chain. Numbers in names are those of the source.
# T1: recombinant human RANKL (soluble, Gly136-Asp317, N-terminal 10 His, expressed in CHO cells) (human) (UniProt O14788)
# T1 sequence: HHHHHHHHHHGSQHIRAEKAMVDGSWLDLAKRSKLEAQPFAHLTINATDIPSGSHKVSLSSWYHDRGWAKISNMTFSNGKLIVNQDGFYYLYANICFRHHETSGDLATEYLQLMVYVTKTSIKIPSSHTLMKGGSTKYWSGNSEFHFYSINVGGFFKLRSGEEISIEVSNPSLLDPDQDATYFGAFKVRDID
# T2: RANK receptor on RAW264.7 cells (mouse (RAW264.7 cells), UniProt O35305 31-625)
# T2 sequence (looked up): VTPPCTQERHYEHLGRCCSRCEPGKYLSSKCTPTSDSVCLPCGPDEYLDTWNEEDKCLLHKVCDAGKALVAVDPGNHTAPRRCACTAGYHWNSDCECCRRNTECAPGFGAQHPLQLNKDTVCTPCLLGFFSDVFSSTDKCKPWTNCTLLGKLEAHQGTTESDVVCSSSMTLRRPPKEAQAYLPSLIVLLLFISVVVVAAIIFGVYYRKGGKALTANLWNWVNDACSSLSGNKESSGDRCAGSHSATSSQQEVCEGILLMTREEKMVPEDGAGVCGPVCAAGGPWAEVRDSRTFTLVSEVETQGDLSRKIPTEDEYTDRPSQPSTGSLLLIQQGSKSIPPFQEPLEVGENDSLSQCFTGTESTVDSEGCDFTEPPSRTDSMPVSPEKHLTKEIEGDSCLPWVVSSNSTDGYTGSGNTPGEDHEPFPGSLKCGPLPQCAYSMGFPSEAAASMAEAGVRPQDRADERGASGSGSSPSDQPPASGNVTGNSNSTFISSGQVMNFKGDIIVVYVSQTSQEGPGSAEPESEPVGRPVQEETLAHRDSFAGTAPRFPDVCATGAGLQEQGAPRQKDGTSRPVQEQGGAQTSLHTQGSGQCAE
# B1: pFL249-H16 scFv clone (scFv, not shown: small tags and cut ends)
# scFv: QVQLVQSGAELKKPGASVKLSCKASGYTFTTYWLQWVRQAPGQGLEWMGAIYPGPGNTKYTQKFKDRFTITADKSKSTAYMQLNSLKSEDSAVYYCARRGSRRGIAYWGQGTLVTVSAGGGGSGGGGSGGGGSNIVLTQSPASLAVSLGQRATISCRASESVDSYGRSFMHWYQQRPGQPPTLLIYLASNLESGVPVRFSGSGSRTDFTLTIDPVEADDAATYYCQQDNEDPYTFGGGTKLEIK
# B2: pFL249-H16u scFv clone (scFv, not shown: small tags and cut ends)
# scFv: B1 scFv with K74T
# B3: pFL249-H114 scFv clone (scFv, not shown: small tags and cut ends)
# scFv: B1 scFv with K12V, K13Q, A40T, F68V, K74T, K76T, K87R
# B4: recombinant human RANKL (soluble, Gly136-Asp317, N-terminal 10 His, expressed in CHO cells) (ligand)
# chain: T1 sequence
# B5: G8 (antibody, human IgG2, kappa, V domains shown)
# VH: QVQLVQSGAELVQPGASVKLSCKASGYTFTTYWLQWVRQTPGQGLEWMGAIYPGPGNTKYTQKFKDRVTITADTSTSTAYMQLNSLRSEDSAVYYCARRGSRRGIAYWGQGTLVTVSA
# VL: NIVLTQSPASLSVSLGQRATISCRASESVDSYGRSFMHWYQQRPGQAPKLLIYLASNLESGVPARFSGSGSRTDFTLTISSVEAEDEATYYCQQDNEDPYTFGGGTKLEIKG
# B6: G10 (antibody, human IgG2, kappa, V domains shown)
# VH: B5 VH with V12K, Q13K, T40A, V68F, T76K, R87K
# VL: B5 VL with K49R
# notes: 293F cells
# B7: G15 (antibody, human IgG2, kappa, V domains shown)
# VH: B5 VH with L11V, V12K, Q13K, L20V, T40A, T74E, Q82E, N84S, S91T
# VL: B5 VL with K49R
# notes: expressed in CHO-S cells for Embodiments 23-25
# B8: G14 (antibody, human IgG2, kappa, V domains shown)
# VH: B5 VH with L11V, V12K, Q13K, L20V, T40A, T74E, Q82E, N84S, S91T
# VL: DIVMTQSPDSLAVSLGERATINCRASESVDSYGRSFMHWYQQKPGQAPRLLIYLASNLESGVPSRFSGSGSGTDFTLTINSLEAEDAATYYCQQDNEDPYTFGGGTKLEIKG
# Experiments:
# [1] = target: T1, recombinant human RANKL (soluble, Gly136-Asp317, N-terminal 10 His, expressed in CHO cells) (human); assay: ELISA, recombinant human RANKL coated 1 µg/ml, RANK-Fc titrated
# [2] = target: commercial hRANKL standard (R & D Systems) (human) (UniProt O14788); assay: ELISA, commercial hRANKL standard coated 1 µg/ml, RANK-Fc titrated
# [3] = target: RANK receptor on RAW264.7 cells (mouse (RAW264.7 cells)) (UniProt O35305); assay: cell-based or functional assay
# [4] = target: T1, recombinant human RANKL (soluble, Gly136-Asp317, N-terminal 10 His, expressed in CHO cells) (human); assay: ELISA, hRANKL coated 1 µg/ml, scFv supernatant, anti-c-myc detection
# [5] = target: T2, RANK receptor on RAW264.7 cells; assay: cell-based or functional assay
# [6] = target: B4; assay: cell-based or functional assay
# [7] = target: B4; assay: cell-based or functional assay; remark: listed apart in the source
# [8] = target: B4; assay: ELISA, hRANKL coated, method of Example 17; antibody from CHO-S cells
# [9] = target: B4; assay: ELISA, hRANKL coated 1 µg/ml; concentration at 50% Bmax; Plate#02
# [10] = target: B4; assay: competitive ELISA, RANK-Fc coated, method of Example 18; antibody from CHO-S cells
# [11] = target: B4; assay: competitive ELISA, RANK-Fc coated, antibody pre-incubated with 0.25 µg/ml hRANKL; Plate#02
# [12] = target: B4; assay: ELISA, hRANKL coated 1 µg/ml; concentration at 50% Bmax; Plate#03
# [13] = target: B4; assay: competitive ELISA, RANK-Fc coated, antibody pre-incubated with 0.25 µg/ml hRANKL; third plate (printed Plate#02)
Molecule,OD450 [4],IC50 for inhibiting cell differentiation of RAW264.7 [6],IC50 (ng/ml) in RAW264.7 cells [7],EC50 [8],IC50 [10],also measured
RANK-Fc (R & D Systems) (Fc fusion),–,–,–,–,–,EC50 [1]: 0.0109 µg/mL; EC50 [2]: 0.0056 µg/mL
commercial hRANKL standard (R & D Systems) (from UniProt O14788 140-317) (ligand),–,–,–,–,–,"EC50 of inducing RAW264.7 cells to differentiate into osteoclasts (TRAP activity, pNPP) [3]: 35.7 ng/ml"
B1,1.2 OD450,–,–,–,–,–
B2,1.2 OD450,–,–,–,–,–
B3,1.2 OD450,–,–,–,–,–
B4,–,–,–,–,–,"EC50 of inducing RAW264.7 cells to differentiate into osteoclasts (TRAP activity, pNPP) [5]: 113 ng/ml"
B5,–,0.329 µg/mL,~573 ng/mL,0.00405 µg/mL,0.37 µg/mL,EC50 [9]: 0.00276 µg/mL; IC50 [11]: 0.38 µg/mL
B6,–,–,695 ng/mL,–,–,EC50 [9]: 0.00285 µg/mL; IC50 [11]: 0.4 µg/mL
B7,–,0.257 µg/mL,–,0.00356 µg/mL,0.25 µg/mL,–
B8,–,0.247 µg/mL,~517 ng/mL,0.00209 µg/mL,0.16 µg/mL,EC50 [12]: 0.004 µg/mL; IC50 [13]: 0.12 µg/mL
